Assay results taken from US20190330271A1 (HANGZHOU WISDOM PANACEA BIOLOGICS, published 2019).

B1: SEQ ID NO: 8, histidine-tagged (peptide)
peptide: SAFNNKR
notes: also called ZR with position 2 substituted with alanine; not shown: histidine tag
B2: SEQ ID NO: 10, histidine-tagged (peptide)
peptide: SFFANKR
notes: also called ZR with position 4 substituted with alanine; not shown: histidine tag

Target: T1, Aβ42 oligomers (UniProt P05067 672-713)
T1 construct: domain: Aβ42; Oligomeric state
Assay: ELISA on coated Aβ42 oligomers, His-tagged polypeptide at 1 µg per well

T1 sequence (P05067 672-713 limits assumed): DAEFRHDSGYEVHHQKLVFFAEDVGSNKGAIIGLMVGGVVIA

Row | Binder | OD450
1 | B1 | 0.48
2 | B2 | 0.57
